Here are results for one molecule from paper PMC7618776, “Direct recruitment of Mis18 to interphase spindle pole bodies promotes CENP-A chromatin assembly” (Current biology : CB, 2023).

In this test the target is T1, 6His-msfGFP-TEV-Mis18FL (S. pombe, UniProt Q9P802 1-194).
T1 construct: Mis18, S. pombe, full length (residues 1-194); Cloned into the vector pET His6 msfGFP TEV (9GFP, Addgene 48287); also called GFP-Mis18; 6His-GFP-Mis18FL; source: E. coli BL21 Gold, purified (HisTrap HP, SEC); not shown: msfGFP, N-terminal, kept
T1 sequence (looked up): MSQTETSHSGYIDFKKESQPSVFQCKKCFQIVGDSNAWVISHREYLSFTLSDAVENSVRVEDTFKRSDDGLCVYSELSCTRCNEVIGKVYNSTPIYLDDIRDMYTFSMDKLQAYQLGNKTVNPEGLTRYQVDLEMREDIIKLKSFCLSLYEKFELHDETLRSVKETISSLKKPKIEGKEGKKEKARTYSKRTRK
Nature of the test: pull-down; 6His-MBP-Sad1(2-167) or 6His-MBP on amylose resin mixed with candidate binding proteins, each protein at 5 μM; 20 mM HEPES pH 7.0, 150 mM NaCl, 1 mM TCEP, 0.01% Tween-20; 4°C 1 hr; Coomassie-stained SDS-PAGE. The conditions noted are these: both partners purified.

B1: 6His-MBP-Sad1(2-167) (domain or fragment, S. pombe, UniProt Q09825 2-167, looked up)
chain: FTNTPVGGKRERQNGAHPAWSTLGANSAQIHQNTADLASKMHKLRYTKIRSPPTRVSIESITPKQRFPAPNFEQAYHSNIRYEQEESDNEEFENVVKNGHEASTNVFYESDGDDEEFVNEEYENSIDEESDDEGYSLNEDTTATNASFRYPMNQRSTRKSQFYSSK
notes: Cloned into the vector pET-6His-MBP-TEV (9C, Addgene 48286) by LIC; also called MBP-Sad1-N; source: E. coli BL21-CodonPlus (DE3)-RIPL, purified (TALON resin); not shown: His6, N-terminal, kept; MBP, N-terminal, kept
For the molecule B1, the binding result is given as “binds”.
